Measured values taken from patent publication US8143228B2, “Agents capable of downregulating an MSF-A dependent HIF-1α and use thereof in cancer treatment” (Medical Research Fund of Tel Aviv Sourasky Medical Center, priority 2004, dated 2012).
“Also recorded” adds a separate entry of the source. Values belong to the molecule of their own block, whether it stands above or below them.

Key:
HIF-1α protein [1] = test: HIF-1α protein stability assays (cycloheximide treatment, pulse-chase) in PC-3 cells; format: cell-based; details: PC-3-Neo cells, within 20 minutes, CHX 10 μg/ml, normalized to α-tubulin
Method: FIGS. 16a-c are Western blot analyses depicting the effect of cycloheximide (CHX) on the expression level of HIF-1α (FIG. 16a) and α-tubulin (FIG. 16b) in PC-3-Neo or PC-3-MSF-A cells grown under normoxia. CHX was added to PC-3-Neo (lanes 1-5) or PC-3-MSF-A (lanes 6-10) at a final concentration of 10 μg/ml, for 0 (lanes 1 and 6), 5 (lanes 2 and 7), 15 (lanes 3 and 8), 30 (lanes 4 and 9) and 45 (lanes 5 and 10) minutes. Whole cell extracts were prepared and resolved by SDS-PAGE and Western blotting was performed with antibodies against HIF-1α (FIG. 16a) or α-tubulin (FIG. 16b). FIG. 16c is a graph depicting quantitation of the results obtained in FIGS. 16a and b expressed as the ratio of HIF-1α expression level normalized to that of α-tubulin. Note, the relatively slow degradation of HIF-1α in cells over-expressing the MSF-A protein, with a degradation half-life of 40 minutes as compared to the degradation half-life of less than 20 minutes in PC-3-Neo cells (FIG. 16c).
FIGS. 17a-b depict pulse-chase analysis of HIF-1α. […] FIG. 17b-quantification of the autoradiographic HIF-1α signal by densitometry.
HIF-1α protein stability assays—Cells were plated into 6-well plates and grown to 70% confluence. […] Immunoprecipitates were analyzed on SDS-PAGE and visualized by autoradiography.

[2] = system: HIF-1α transcriptional activity; test: HRE-dependent luciferase reporter gene assay in HEK 293 cells; format: cell-based; details: transient transfection, hypoxia, compared with empty vector
Method: FIG. 7 is a graph depicting luciferase activity (a reporter of HIF-1α transcriptional activation) as a function of the presence or absence of the N-terminus of the MSF-A protein. HEK 293 cells were co-transfected with 0.1 μg HRE-dependent luciferase reporter [pBI-GL V6L (Post, D. E., and Van Meir, E. G. 2001. Generation of bidirectional hypoxia/HIF-responsive expression vectors to target gene expression to hypoxic cells. Gene Ther 8, 1801-1807. Mabjeesh, N. J., et al., 2002, Geldanamycin induces degradation of hypoxia-inducible factor 1 alpha protein via the proteasome pathway in prostate cancer cells. Cancer Res 62, 2478-2482) and the wild type (WT) MSF-A (p3xFlag-MSF-A), ΔN-MSF-A (ΔN) (p3xFlag-ΔN-MSF-A) or empty vector (EV) (p3xFlag-cmv-25) constructs as follows: Experiment (Exp.) No. 1=1 μg EV; Exp. No. 2=0.5 μg EV and 0.5 μg WT; Exp. No. 3-1 μg WT; Exp. No. 4=0.5 μg EV and 0.5 μg ΔN; Exp. No. 5=1 μg ΔN. After 24 hours of transfection, cells were subjected to normoxia or hypoxia for overnight and then analyzed for luciferase luminescence assay. Luciferase activity is presented as relative units per μg protein in each experiment. Columns represent means; bars represent SD; n=3; *, p<0.05 compared to hypoxia of EV. Note the significant decrease of luciferase activity in cells grown under hypoxia and transfected with the N-terminus truncated form (ΔN) of MSF-A as compared with cells transfected with the wild-type form of MSF-A. Also note that under normoxia, when the luciferase activity is hardly detected, no significant difference is obtained.
FIG. 8 is a graph depicting luciferase activity (a reporter of HIF-1α transcriptional activation) as a function of the presence or absence of the GTP binding site of MSF-A (ΔG). HEK 293 cells were cotransfected with HRE-dependent luciferase reporter and the expression vector encoding wild-type MSF-A (WT) (p3xFlag-MSF-A), the deleted GTP binding site form of MSF-A (ΔG) (p3xFlag-ΔG-MSF-A) or empty vector (EV) (p3xFlag-cmv-25) and then were exposed to hypoxia conditions as described in the description of FIG. 4, hereinabove. Luciferase activity is presented as relative units per μg protein in each experiment. Columns represent means; bars represent SD; n=3. Note the non-significant effect of the ΔG-MSF-A on HIF-1α activity.
Reporter gene assay and luminescence measurements—HRE-dependent luciferase activity was performed using the pBI-GL construct (pBI-GL V6L) containing six tandem copies of the VEGF hypoxia response element as previously described (Mabjeesh et al., 2002; Post and Van Meir, 2001). […] Luciferase enzymatic activity was measured using the commercial kit TROPIX (Bedford, Mass.) in the Galaxy luminometer (BMG Labtechnologies LUMIstar) following the manufacturer's instructions. […]

HIF-1α protein [3] = biological target: T1, HIF-1α protein (Homo sapiens, UniProt Q16665); test: Co-immunoprecipitation / immunoblotting with HIF-1α in transfected HEK 293 cells; format: binding; details: transient transfection
T1 construct: expressed in transfected cells; host or cells: HEK 293
T1 sequence (Q16665 whole entry): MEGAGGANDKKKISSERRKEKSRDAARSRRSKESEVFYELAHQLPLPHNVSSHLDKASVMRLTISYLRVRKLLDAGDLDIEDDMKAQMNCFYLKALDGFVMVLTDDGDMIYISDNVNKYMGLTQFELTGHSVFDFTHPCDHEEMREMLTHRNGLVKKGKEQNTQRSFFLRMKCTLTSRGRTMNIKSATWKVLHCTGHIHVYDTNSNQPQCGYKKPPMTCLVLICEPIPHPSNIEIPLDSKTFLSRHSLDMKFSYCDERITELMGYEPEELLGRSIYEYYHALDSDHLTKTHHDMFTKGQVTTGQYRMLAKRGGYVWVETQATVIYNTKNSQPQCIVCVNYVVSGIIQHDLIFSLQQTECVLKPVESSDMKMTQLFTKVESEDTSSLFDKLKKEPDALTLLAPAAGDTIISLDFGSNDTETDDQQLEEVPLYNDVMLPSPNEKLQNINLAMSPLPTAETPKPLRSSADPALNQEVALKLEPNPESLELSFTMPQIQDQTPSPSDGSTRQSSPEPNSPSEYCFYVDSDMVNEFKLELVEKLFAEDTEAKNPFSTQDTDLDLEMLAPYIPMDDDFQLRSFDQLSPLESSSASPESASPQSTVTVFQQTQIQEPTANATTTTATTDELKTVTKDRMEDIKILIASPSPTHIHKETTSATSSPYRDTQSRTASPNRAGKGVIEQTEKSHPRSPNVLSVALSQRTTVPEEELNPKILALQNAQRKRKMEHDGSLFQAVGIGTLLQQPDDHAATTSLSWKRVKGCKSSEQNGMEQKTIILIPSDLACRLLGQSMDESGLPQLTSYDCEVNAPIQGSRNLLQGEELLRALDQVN
Method: FIGS. 9a-c are Western blot analyses of FLAG (MSF-A; FIGS. 9a and b) and HIF-1α (FIG. 9c) depicting the interaction between HIF-1α and the WT or deleted forms of MSF-A. HEK 293 cells were transiently co-transfected with expression vector encoding Flag-MSF-A (WT; p3xFlag-MSF-A), Flag-ΔG (AG; p3xFlag-ΔG-MSF-A), Flag-ΔN (ΔN; p3xFlag-ΔN-MSF-A) or empty vector (EV; p3xFlag-cmv-25). After 48 hours, the cells were lysed, subjected for immunoprecipitation (IP) using HIF-1α antibody and then immunoblotted (IB) with HIF-1α or Flag antibodies. FIG. 9a—whole cell extracts (WCE) subjected to IB with the Flag antibody (MSF-A); FIG. 9b—IP prepared by the HIF-1α antibody were subjected to IB with the Flag antibody (MSF-A); FIG. 9c—IP prepared by the HIF-1α antibody were subjected to IB with the HIF-1α antibody.
Immunoblotting—Proteins (30-60 μg/lane) from WCEs were resolved by 7.5% SDS-PAGE, electro-blotted to nitrocellulose membranes and incubated with the indicated primary antibodies, followed by horseradish peroxidase-conjugated secondary antiserum (Amersham Biosciences, Piscataway, N.J.). Immunoreactivity was visualized by Amersham enhanced chemiluminescence reagent (Amersham Biosciences, Piscataway, N.J.). For sequential blotting with additional antibodies, the membranes were stripped from the first primary antibody using a restore Western blot stripping buffer (Pierce, Rockford, Ill.) and were re-probed using the second primary antibody as indicated.
Immunoprecipitation—Cells were washed twice with ice-cold PBS, lysed in 20 mM Na-HEPES, pH 7.5, 0.5% Nonidet P-40, 0.1M NaCl, 2 mM EDTA, 10% Glycerol and 2 mM DTT supplemented with protease and phosphatase inhibitors, and were subjected to immunoprecipitation using anti-HIF-1α antibody and protein G-agarose beads (Pierce, Ill.) according to the manufacturer's instructions.
To confirm the interaction between the HIF-1α and the MSF-A proteins, HEK 293 cells were transiently co-transfected with the p3xFlag-MSF-A and the pcDNA3.1-HIF-1α vectors, and were grown for 24 hours under normoxic conditions (i.e., conditions of 20% oxygen), following which whole cell extracts (WCE) were subjected to co-immunoprecipitation (IP) using anti-FLAG or anti-HIF-1α antibodies. Following IP, the proteins were subjected to SDS-PAGE and immunoblotting (IB) using the counterpart antibody. As is shown in FIGS. 3a-d, following transfection with both expression vectors (i.e., pcDNA3.1-HIF-1α and p3xFlag-MSF-A) immunoprecipitates generated using either the anti-HIF-1α antibody or the anti-Flag antibody included the reciprocal proteins, i.e., the Flag-MSF-A or HIF-1α proteins, respectively.

Molecule: C[C@@H]1C[C@@H]([C@H](O)CC2CC(=O)NC(=O)C2)C(=O)[C@@H](C)C1 [CHX, cycloheximide]
HIF-1α protein levels after exposure to CHX (HIF-1α protein [1]): about 50%

association with HIF-1α protein (co-immunoprecipitation) (HIF-1α protein [3]): capable of binding | association with HIF-1α protein (co-immunoprecipitation) (HIF-1α protein [3]; listed as ΔG-MSF): co-immunoprecipitated
B1: ΔG-MSF-A: MSF-A mutant lacking the GTP binding domain, deletion of amino acids 305-312 GQSGLGKS (SEQ ID NO:4215) (protein, listed as Homo sapiens)
chain: MKKSYSGGTRTSSGRLRRLGDSSGPALKRSFEVEEVETPNSTPPRRVQTPLLRATVASSTQKFQDLGVKNSEPSARHVDSLSQRSPKASLRRVELSGPKAAEPVSRRTELSIDISSKQVENAGAIGPSRFGLKRAEVLGHKTPEPAPRRTEITIVKPQESAHRRMEPPASKVPEVPTAPATDAAPKRVEIQMPKPAEAPTAPSPAQTLENSEPAPVSQLQSRLEPKPQPPVAEATPRSQEATEAAPSCVGDMADTPRDAGLKQAPASRNEKAPVDFGYVGIDSILEQMRRKAMKQGFEFNIMVVTLINTLFKSKISRKSVQPTSEERIPKTIEIKSITHDIEEKGVRMKLTVIDTPGFGDHINNENCWQPIMKFINDQYEKYLQEEVNINRKKRIPDTRVHCCLYFIPATGHSLRPLDIEFMKRLSKVVNIVPVIAKADTLTLEERVHFKQRITADLLSNGIDVYPQKEFDEDSEDRLVNEKFREMIPFAVVGSDHEYQVNGKRILGRKTKWGTIEVENTTHCEFAYLRDLLIRTHMQNIKDITSSIHFEAYRVKRLNEGSSAMANGVEEKEPEAPEM
modifications: 3xFlag tag
HIF-1α transcriptional activity (luciferase reporter) [2]: no significant effect | HIF-1α transcriptional activity (luciferase reporter) ([2]; listed as ΔG-MSF): lack of activation

association with HIF-1α protein (co-immunoprecipitation) (HIF-1α protein [3]): capable of binding | association with HIF-1α protein (co-immunoprecipitation) (HIF-1α protein [3]; listed as N-terminal truncated form of MSF-A): unable to form a protein complex | association with HIF-1α protein (co-immunoprecipitation) (HIF-1α protein [3]; listed as ΔN-MSF): co-immunoprecipitated
B2: ΔN-MSF-A: N-terminal truncated MSF-A, deletion of the first 25 amino acids (SEQ ID NO:10, encoded by SEQ ID NO:7) (protein, listed as Homo sapiens)
chain: ALKRSFEVEEVETPNSTPPRRVQTPLLRATVASSTQKFQDLGVKNSEPSARHVDSLSQRSPKASLRRVELSGPKAAEPVSRRTELSIDISSKQVENAGAIGPSRFGLKRAEVLGHKTPEPAPRRTEITIVKPQESAHRRMEPPASKVPEVPTAPATDAAPKRVEIQMPKPAEAPTAPSPAQTLENSEPAPVSQLQSRLEPKPQPPVAEATPRSQEATEAAPSCVGDMADTPRDAGLKQAPASRNEKAPVDFGYVGIDSILEQMRRKAMKQGFEFNIMVVGQSGLGKSTLINTLFKSKISRKSVQPTSEERIPKTIEIKSITHDIEEKGVRMKLTVIDTPGFGDHINNENCWQPIMKFINDQYEKYLQEEVNINRKKRIPDTRVHCCLYFIPATGHSLRPLDIEFMKRLSKVVNIVPVIAKADTLTLEERVHFKQRITADLLSNGIDVYPQKEFDEDSEDRLVNEKFREMIPFAVVGSDHEYQVNGKRILGRKTKWGTIEVENTTHCEFAYLRDLLIRTHMQNIKDITSSIHFEAYRVKRLNEGSSAMANGVEEKEPEAPEM
modifications: 3xFlag tag
HIF-1α transcriptional activity (luciferase reporter) [2]: dose-dependent inhibition; also recorded: inhibition of HIF-1α activation below the level observed in cells transfected with the empty vector
